No end group written: not given here.

The assay addresses recombinant human TLR2 ectodomain (human, UniProt O60603 19-590, N-linked glycans, predominantly of the high-mannose type). The assay is described as follows: native gel or EMSA.

recombinant human TLR2 ectodomain, sequence (O60603 19-590): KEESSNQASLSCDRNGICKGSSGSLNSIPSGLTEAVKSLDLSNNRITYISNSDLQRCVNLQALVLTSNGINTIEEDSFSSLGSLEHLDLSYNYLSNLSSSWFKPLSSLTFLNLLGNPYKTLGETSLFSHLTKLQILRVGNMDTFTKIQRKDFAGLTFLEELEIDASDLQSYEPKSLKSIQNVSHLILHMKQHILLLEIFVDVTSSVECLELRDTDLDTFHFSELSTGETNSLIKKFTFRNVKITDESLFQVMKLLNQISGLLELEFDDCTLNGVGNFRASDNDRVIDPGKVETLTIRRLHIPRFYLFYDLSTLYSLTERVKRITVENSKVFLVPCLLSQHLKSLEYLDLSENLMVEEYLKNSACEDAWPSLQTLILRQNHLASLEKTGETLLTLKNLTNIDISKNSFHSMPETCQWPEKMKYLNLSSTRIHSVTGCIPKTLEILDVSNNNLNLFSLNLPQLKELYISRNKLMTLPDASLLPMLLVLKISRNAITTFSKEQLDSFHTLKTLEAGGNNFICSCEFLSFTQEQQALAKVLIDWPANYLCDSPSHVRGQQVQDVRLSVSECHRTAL

B1: S-(2,3-bis-palmitoyloxypropyl)-Cys-Gly-Asp-Pro-Lys-His-Pro-Lys-Ser-Phe-K-Aca-Aca-Fluorescein (peptide)
peptide: C(2,3‑bis‑palmitoyloxypropyl)GDPKHPKSFK-{Aca-Aca-Fluorescein}
In the case of B1, the binding result is “binds”.
